Test system: Escherichia coli TOP10
Assay: shrunken log2 fold change of peptide-encoding DNA abundance (4.5 h post-induction vs induction); higher = less antimicrobial activity (less host growth inhibition)
Settings: time post-induction: 4.5 h; library: site-saturation at positions 5, 18, 19, 20
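Note: peptides expressed intracellularly from a pBAD plasmid library in pooled LB shake-flask culture, induced with 0.3% L-arabinose, DNA abundance read by NGS, three biological replicates, DESeq2 with apeglm shrinkage.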

Sequence	shrunken log2 fold change
RRIRKRPPRLPRPRPRPYTYPRP	-0.119
RRIRRRPPRLPRPRPRPVHPPRP	0.348
RRIRTRPPRLPRPRPRPFHKPRP	0.0244
RRIRKRPPRLPRPRPRPRTTPRP	0.792
RRIRPRPPRLPRPRPRPGVCPRP	0.428
RRIRIRPPRLPRPRPRPPYEPRP	-0.315
RRIRCRPPRLPRPRPRPYYSPRP	-0.437
RRIRHRPPRLPRPRPRPDCGPRP	-0.131
RRIRPRPPRLPRPRPRPSVFPRP	-0.0552
RRIRDRPPRLPRPRPRPVGIPRP	-0.0542
RRIRERPPRLPRPRPRPIHFPRP	-0.00865
RRIRWRPPRLPRPRPRPSSFPRP	-0.00317
RRIRMRPPRLPRPRPRPPTNPRP	0.949
RRIRRRPPRLPRPRPRPEGAPRP	1.05
RRIRLRPPRLPRPRPRPQASPRP	0.0594
RRIRLRPPRLPRPRPRPTGLPRP	0.177
RRIRERPPRLPRPRPRPPREPRP	0.87
RRIRIRPPRLPRPRPRPCIFPRP	-0.402
RRIRFRPPRLPRPRPRPWFDPRP	-0.101
RRIRQRPPRLPRPRPRPPRTPRP	0.669
RRIRKRPPRLPRPRPRPYMHPRP	-0.0355
RRIRHRPPRLPRPRPRPSQGPRP	0.0306

Sequence	shrunken log2 fold change
RRIRARPPRLPRPRPRPFCPPRP	0.11
RRIRCRPPRLPRPRPRPNNMPRP	-0.745
RRIRYRPPRLPRPRPRPAEQPRP	0.0374
RRIRQRPPRLPRPRPRPPWCPRP	0.0207
RRIRPRPPRLPRPRPRPQWLPRP	-0.0256
RRIRMRPPRLPRPRPRPFTYPRP	-0.0802
RRIRIRPPRLPRPRPRPMLVPRP	0.0625
RRIRSRPPRLPRPRPRPRQKPRP	0.29
RRIRRRPPRLPRPRPRPKKIPRP	0.106
RRIRKRPPRLPRPRPRPMDLPRP	0.198
RRIRWRPPRLPRPRPRPAGEPRP	0.432
RRIRARPPRLPRPRPRPLCWPRP	0.43
RRIRTRPPRLPRPRPRPFVTPRP	-0.298
RRIRVRPPRLPRPRPRPNYLPRP	-0.102
RRIRPRPPRLPRPRPRPNYFPRP	-0.435
RRIRTRPPRLPRPRPRPMYFPRP	-0.53
RRIRYRPPRLPRPRPRPTTAPRP	-0.415
RRIRERPPRLPRPRPRPEEMPRP	0.0169
RRIRYRPPRLPRPRPRPKIWPRP	-0.475
RRIRQRPPRLPRPRPRPPPYPRP	-0.0506
RRIRARPPRLPRPRPRPVQMPRP	0.21
RRIRNRPPRLPRPRPRPRLDPRP	0.0403

Sequence	shrunken log2 fold change
RRIRSRPPRLPRPRPRPIGDPRP	0.0153
RRIRFRPPRLPRPRPRPMYCPRP	-0.541
RRIRWRPPRLPRPRPRPHEQPRP	0.718
RRIRPRPPRLPRPRPRPVNCPRP	-0.118
RRIRERPPRLPRPRPRPCQHPRP	-0.0915
RRIRKRPPRLPRPRPRPASAPRP	0.59
RRIRMRPPRLPRPRPRPHWKPRP	0.0142
RRIRTRPPRLPRPRPRPARCPRP	0.324
RRIRPRPPRLPRPRPRPSSAPRP	0.0846
RRIRHRPPRLPRPRPRPDHLPRP	-0.0237
RRIRPRPPRLPRPRPRPATLPRP	0.223
RRIRLRPPRLPRPRPRPLGNPRP	0.102
RRIRYRPPRLPRPRPRPRDTPRP	-0.378
RRIRSRPPRLPRPRPRPYRHPRP	-0.542
RRIRCRPPRLPRPRPRPVSSPRP	-0.0119
RRIRQRPPRLPRPRPRPCEAPRP	0.00535
RRIRTRPPRLPRPRPRPAGDPRP	0.258
RRIRYRPPRLPRPRPRPFKFPRP	0.0599
RRIRERPPRLPRPRPRPCIDPRP	-0.00146
RRIRSRPPRLPRPRPRPIAHPRP	-0.0401
RRIRYRPPRLPRPRPRPQLCPRP	-0.0902
RRIRFRPPRLPRPRPRPNGCPRP	-0.0256

Sequence	shrunken log2 fold change
RRIRHRPPRLPRPRPRPNCQPRP	0.358
RRIRFRPPRLPRPRPRPVKNPRP	-0.0401
RRIRPRPPRLPRPRPRPYTEPRP	-0.349
RRIRRRPPRLPRPRPRPPQIPRP	0.908
RRIRSRPPRLPRPRPRPVISPRP	0.141
RRIRDRPPRLPRPRPRPYWKPRP	-0.00829
RRIRPRPPRLPRPRPRPEKMPRP	0.742
RRIRTRPPRLPRPRPRPAAFPRP	-0.128
RRIRMRPPRLPRPRPRPGRRPRP	0.724
RRIRWRPPRLPRPRPRPMQNPRP	0.459
RRIRYRPPRLPRPRPRPSKDPRP	-0.642
RRIRMRPPRLPRPRPRPSESPRP	-0.01
RRIRARPPRLPRPRPRPMFQPRP	-0.0957
RRIRIRPPRLPRPRPRPEIEPRP	-0.0562
RRIRPRPPRLPRPRPRPTNEPRP	0.0205
RRIRRRPPRLPRPRPRPCIKPRP	-0.0974
RRIRIRPPRLPRPRPRPYGGPRP	0.00177
RRIRFRPPRLPRPRPRPFAIPRP	-0.109
RRIRKRPPRLPRPRPRPWDAPRP	0.496
RRIRQRPPRLPRPRPRPDSMPRP	-0.17
RRIRNRPPRLPRPRPRPKTMPRP	0.177
RRIRQRPPRLPRPRPRPFYYPRP	-0.59

Sequence	shrunken log2 fold change
RRIRERPPRLPRPRPRPPCHPRP	-0.251
RRIRPRPPRLPRPRPRPWFGPRP	-0.0238
RRIRWRPPRLPRPRPRPWGPPRP	0.384
RRIRCRPPRLPRPRPRPLQYPRP	-0.0878
RRIRCRPPRLPRPRPRPKSTPRP	-0.137
RRIRARPPRLPRPRPRPPSHPRP	0.351
RRIRERPPRLPRPRPRPWMKPRP	-0.353
RRIRFRPPRLPRPRPRPCRAPRP	0.0454
RRIRSRPPRLPRPRPRPTTSPRP	0.094
RRIRIRPPRLPRPRPRPSHLPRP	-0.622
RRIRCRPPRLPRPRPRPWQHPRP	-0.256
RRIRTRPPRLPRPRPRPLEEPRP	-0.0207
RRIRHRPPRLPRPRPRPMQRPRP	0.138
RRIRIRPPRLPRPRPRPAFVPRP	-0.0212
RRIRQRPPRLPRPRPRPVRFPRP	0.728
RRIRSRPPRLPRPRPRPHTHPRP	-0.419
RRIRNRPPRLPRPRPRPDRGPRP	-0.0223
RRIRTRPPRLPRPRPRPAKDPRP	-0.399
RRIRCRPPRLPRPRPRPWDNPRP	-0.291
RRIRWRPPRLPRPRPRPLREPRP	0.125
RRIRQRPPRLPRPRPRPNKCPRP	-0.145
